The data set can be described thus: Isoelectric point of gelatin. To be noted: recombinant gelatin CBE3. It is filed as physicochemical.

As to “CBE3: recombinant gelatin, SEQ ID NO: 1, Gly-Ala-Pro[(Gly-X-Y)63]3Gly, 571 amino acids, 12 RGD sequences”, the Isoelectric point came to 9.34.

(Values after US8961929B2, “Targeting agent for tumor site” (FUJIFILM Corporation, priority 2010, dated 2015).)
